In one assay the target is SRPK1 (Homo sapiens) (UniProt Q96SB4). The conditions noted are these: cited from earlier work.
Assay [1] deals with T1, GB1-SRPK1 (full-length SRPK1 with N-terminal GB1 solubility tag) (Homo sapiens, UniProt Q96SB4).
T1 construct: His tag; made in house; host or cells: E. coli BL21-CodonPlus (DE3)-RP
The experiment in a line: Isothermal titration calorimetry (ITC) of ICP27 peptides with GB1-SRPK1. It is filed as binding. Conditions: 25°C, 10 μM GB1-SRPK1 in cell, 120 μM peptide in syringe, 20 mM HEPES, 150 mM NaCl, 1 mM TCEP pH 7.4, single-site model, mean of 3 runs (± SD). The source says:
The RGG box in full-length ICP27 (Fig. 1A) was previously identified by mutagenesis experiments as the segment necessary for interaction with SRPK1 ([27]), with the binding modulated by arginine methylation ([51]). […] To further confirm and map the RGG box interaction with SRPK1, we expressed and purified ^15N-labeled ICP27^103–155 and using the established backbone assignment ([55]) carried out nuclear magnetic resonance (NMR) signal perturbation mapping by comparison of ^1H-^15N correlation spectra in the presence and absence of unlabeled GB1-SRPK1 (Fig. 1E). […] These solution data together confirmed that SRPK1 binds with high affinity to a relatively short region of ICP27 containing the RGG box, with possible further contributions from nearby residues 112 to 121, whereas other residues retain significant flexibility when the peptide is bound. […]
GB1-SRPK1 and ICP27 peptides were placed into Slide-a-Lyzer G2 cassettes (Thermo Fisher) and dialyzed within identical buffer consisting of 20 mM HEPES, 150 mM NaCl, and 1 mM TCEP [Tris(2-carboxyethyl)phosphine hydrochloride] […] Protein concentrations were measured by absorbance at 280 nm using extinction coefficients ([67]) of 86,580 M^−1 cm^−1 and 5,500 M^−1 cm^−1 for GB1-SRPK1 and ICP27^103–155, respectively. […]
In general terms: In ITC the heat of successive injections is recorded.

Assay [2] has as its target T2, full-length SRPK1 tagged with an N-terminal GB1 solubility tag (human, UniProt Q96SB4 1-655).
T2 construct: serine-arginine protein kinase 1 (SRPK1), human, full length; probably also carries a His tag used for purification; also called GB1-SRPK1; serine-arginine protein kinase 1; source: E. coli, purified (GST or His tag purification, size exclusion chromatography); not shown: GB1, N-terminal, kept
The experiment in a line: ITC; 10 μM GB1-SRPK1 in the sample cell, 120 μM ICP27 peptide in the syringe; 25°C; 20 mM HEPES, 150 mM NaCl, 1 mM TCEP, pH 7.4; single-site binding model. Conditions: both partners purified.

Square brackets hold non-standard residues; d marks the D form. Ends that are not written are not given here.

T1 sequence (Q96SB4 whole entry): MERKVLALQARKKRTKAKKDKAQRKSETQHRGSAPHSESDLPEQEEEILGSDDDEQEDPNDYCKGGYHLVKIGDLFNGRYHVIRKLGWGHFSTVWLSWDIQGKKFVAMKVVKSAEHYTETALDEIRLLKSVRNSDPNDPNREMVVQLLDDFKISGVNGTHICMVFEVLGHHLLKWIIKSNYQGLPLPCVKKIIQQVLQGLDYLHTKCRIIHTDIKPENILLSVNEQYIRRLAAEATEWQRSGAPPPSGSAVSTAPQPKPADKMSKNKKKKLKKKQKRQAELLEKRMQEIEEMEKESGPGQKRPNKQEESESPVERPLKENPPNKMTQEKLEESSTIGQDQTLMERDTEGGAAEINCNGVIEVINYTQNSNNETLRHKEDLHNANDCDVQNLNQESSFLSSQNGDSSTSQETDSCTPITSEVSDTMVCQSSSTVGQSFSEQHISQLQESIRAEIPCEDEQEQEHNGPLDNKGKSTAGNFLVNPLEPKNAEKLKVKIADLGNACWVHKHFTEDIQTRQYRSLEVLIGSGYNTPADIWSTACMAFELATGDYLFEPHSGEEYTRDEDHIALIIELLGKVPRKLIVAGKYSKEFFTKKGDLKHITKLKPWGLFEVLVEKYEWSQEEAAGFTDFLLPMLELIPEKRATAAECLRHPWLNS
T2 sequence (Q96SB4 whole entry): as above
SRPK1 (Homo sapiens), sequence (Q96SB4 whole entry): as above

With SRSF1 (from UniProt Q07955), the Kd (as a rule, a measure of binding affinity in units of concentration) with SRPK1 (Homo sapiens) is 50 nM. Regarding `CC(C)C[C@H](NC(=O)[C@H](CCCNC(=N)N)NC(=O)[C@H](CO)NC(=O)[C@H](Cc1c[nH]c2ccccc12)NC(=O)[C@@H](NC(=O)[C@@H](N)CO)C(C)C)C(=O)NCC(=O)N[C@@H](C)C(=O)N[C@@H](CCCNC(=N)N)C(=O)N[C@@H](CCCNC(=N)N)C(=O)N1CCC[C@H]1C(=O)N[C@@H](CO)C(=O)N[C@@H](CS)C(=O)N[C@@H](CO)C(=O)N1CCC[C@H]1C(=O)N[C@@H](CCC(=O)O)C(=O)N[C@@H](CCCNC(=N)N)C(=O)N[C@@H](Cc1c[nH]cn1)C(=O)NCC(=O)NCC(=O)N[C@@H](CCCCN)C(=O)N[C@H](C(=O)N[C@@H](C)C(=O)N[C@@H](CCCNC(=N)N)C(=O)N[C@@H](CC(C)C)C(=O)N[C@@H](CCC(N)=O)C(=O)N1CCC[C@H]1C(=O)N1CCC[C@H]1C(=O)N1CCC[C@H]1C(=O)N[C@H](C(=O)N[C@@H](CCCCN)C(=O)N[C@@H](C)C(=O)N[C@@H](CCC(N)=O)C(=O)N1CCC[C@H]1C(=O)N[C@@H](C)C(=O)N[C@@H](CCCNC(=N)N)C(=O)NCC(=O)NCC(=O)N[C@@H](CCCNC(=N)N)C(=O)N[C@@H](CCCNC(=N)N)C(=O)NCC(=O)N[C@@H](CCCNC(=N)N)C(=O)N[C@@H](CCCNC(=N)N)C(=O)N[C@@H](CCCNC(=N)N)C(=O)NCC(=O)N[C@@H](CCCNC(=N)N)C(=O)NCC(=O)N[C@@H](CCCNC(=N)N)C(=O)NCC(=O)NCC(=O)N1CCC[C@H]1C(=O)NCC(=O)N[C@@H](C)C(=O)O)[C@@H](C)O)C(C)C` [ICP27^103–155], the Kd in assay [1] worked out at 93.9 nM.

Molecule `CC(C)C[C@H](NC(=O)[C@H](CCCNC(=N)N)NC(=O)[C@H](CO)NC(=O)[C@H](Cc1c[nH]c2ccccc12)NC(=O)[C@@H](NC(=O)[C@@H](N)CO)C(C)C)C(=O)NCC(=O)N[C@@H](C)C(=O)N[C@@H](CCCNC(=N)N)C(=O)N[C@@H](CCCNC(=N)N)C(=O)N1CCC[C@H]1C(=O)N[C@@H](CO)C(=O)N[C@@H](CS)C(=O)N[C@@H](CO)C(=O)N1CCC[C@H]1C(=O)N[C@@H](CCC(=O)O)C(=O)N[C@@H](CCCNC(=N)N)C(=O)N[C@@H](Cc1c[nH]cn1)C(=O)NCC(=O)NCC(=O)N[C@@H](CCCCN)C(=O)N[C@H](C(=O)N[C@@H](C)C(=O)N[C@@H](CCCNC(=N)N)C(=O)N[C@@H](CC(C)C)C(=O)N[C@@H](CCC(N)=O)C(=O)N1CCC[C@H]1C(=O)N1CCC[C@H]1C(=O)N1CCC[C@H]1C(=O)N[C@H](C(=O)N[C@@H](CCCCN)C(=O)N[C@@H](C)C(=O)N[C@@H](CCC(N)=O)C(=O)N1CCC[C@H]1C(=O)N[C@@H](C)C(=O)N[C@@H](CCCNC(=N)N(C)C)C(=O)NCC(=O)NCC(=O)N[C@@H](CCCNC(=N)N)C(=O)N[C@@H](CCCNC(=N)N)C(=O)NCC(=O)N[C@@H](CCCNC(=N)N)C(=O)N[C@@H](CCCNC(=N)N)C(=O)N[C@@H](CCCNC(=N)N)C(=O)NCC(=O)N[C@@H](CCCNC(=N)N(C)C)C(=O)NCC(=O)N[C@@H](CCCNC(=N)N(C)C)C(=O)NCC(=O)NCC(=O)N1CCC[C@H]1C(=O)NCC(=O)N[C@@H](C)C(=O)O)[C@@H](C)O)C(C)C` [methylated ICP27^103–155] came in with a Kd in assay [1] of 261 nM.

B1: synthetic peptide of ICP27 103-155, dimethylated on R138, R148 and R150 (peptide)
peptide: SVWSRLGARRPSCSPEQHGGKVARLQPPPTKAQPA[ADMA]GGRRGRRRG[ADMA]G[ADMA]GGPGA
notes: HSV-1 ICP27, residues 103 to 155; also called methylated ICP27^103–155; methylated ICP27^103–155 peptide; source: synthetic peptide (Peptide Protein Research)
For the molecule B1, the Kd in assay [2] was 262 ± 21 nM.

B2: synthetic peptide of ICP27 103-155, unmodified (peptide)
peptide: SVWSRLGARRPSCSPEQHGGKVARLQPPPTKAQPARGGRRGRRRGRGRGGPGA
notes: also called unmodified ICP27^103–155; nonmethylated ICP27^103–155 peptide; source: synthetic peptide (Peptide Protein Research)
Take B2: the Kd in assay [2] is 94 ± 23 nM.

The values are drawn from PMC6805999, “Molecular Mechanism of SR Protein Kinase 1 Inhibition by the Herpes Virus Protein ICP27” (mBio, 2019).
